The supplement of paper PMC10126150
± gives the standard deviation of the averaged measurements.

Test system: ATP
Experiment: switch fluorescence ratio, 500 uM ATP over buffer (Cy3 cluster intensity, sum of 5 cycles each) (fold (ratio)); higher = stronger signal-on switching upon ATP binding; sequences stand for … in TCGTCGGCAGCGTCAGATGTGTATAAGAGACAGTTTTTTTTTTTTTTTTTTTTTTTTT…TC
Conditions: aptamer strand: ATP DNA aptamer (quencher-CACCTGGGGGAGTATTGCGGAGGAAGG + anchor), 100 nM annealed; ATP concentration: 500 uM
Procedure, shortened: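 After annealing to 100 nM quencher-labelled ATP aptamer, Cy3-labelled switching-strand clusters on a modified Illumina MiSeq flow-cell were imaged in selection buffer. A second image followed after 15 min with 500 uM ATP at 22 °C, and five such buffer/ATP cycles were done, each separated by NaOH stripping and re-annealing. The fluorescence ratio, averaged per switch-domain sequence, is summed target-cycle over summed buffer-cycle Cy3 intensity per cluster, with clusters outside 100-1000 RFU excluded.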
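Note: ATP exposure 15 min at 22 °C before imaging.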

| Sequence | switch fluorescence ratio |
| --- | --- |
| AGTAATTTGT | 0.988 ± 0.019 |
| AGTACAGGCG | 1.024 ± 0.0097 |
| AGTACGAGCC | 1.186 ± 0.0026 |
| AGTACGATAT | 1.14 ± 0.025 |
| AGTACGGGGT | 0.982 ± 0.031 |
| AGTACTCTGT | 1.01 ± 0.039 |
| AGTACTTGCC | 1.03 ± 0.016 |
| AGTAGATTTT | 0.986 ± 0.04 |
| AGTAGCAGCG | 0.963 ± 0.04 |
| AGTAGCGGGA | 1.02 ± 0.024 |
| AGTAGCGGGT | 0.981 ± 0.026 |
| AGTAGGACTC | 1.01 ± 0.013 |
| AGTAGGGAAA | 1 ± 0.033 |
| AGTAGGGCAG | 0.9976 ± 0.006 |
| AGTAGGGCGA | 1 ± 0.092 |
| AGTAGGGCGT | 0.9964 ± 0.0088 |
| AGTAGGGCTT | 1.01 ± 0.039 |
| AGTAGGGGAG | 1.01 ± 0.028 |
| AGTAGGGGTG | 1.01 ± 0.032 |
| AGTAGGTAAT | 0.9902 ± 0.0071 |
| AGTAGGTG | 1.05 ± 0.04 |
| AGTAGTAAGA | 1.01 ± 0.022 |
| AGTAGTATAT | 0.994 ± 0.03 |
| AGTAGTATTT | 1.017 ± 0.0014 |
| AGTATAGCGA | 1.01 ± 0.035 |

| Sequence | switch fluorescence ratio |
| --- | --- |
| AGTATATAC | 1.02 ± 0.029 |
| AGTATCATGT | 1.02 ± 0.063 |
| AGTATCATTT | 0.952 ± 0.02 |
| AGTATGACGG | 0.986 ± 0.036 |
| AGTATGTAGC | 0.997 ± 0.032 |
| AGTATGTGAA | 0.97601 ± 0.00029 |
| AGTATTCAAA | 1 ± 0.018 |
| AGTATTCTTA | 0.99324 ± 0.00072 |
| AGTATTGCGA | 0.974 ± 0.01 |
| AGTATTGGGG | 0.999 ± 0.025 |
| AGTATTTAGT | 1.003 ± 0.0092 |
| AGTATTTTGC | 0.969 ± 0.085 |
| AGTATTTTGT | 0.974 ± 0.011 |
| AGTCAATGAC | 0.968 ± 0.012 |
| AGTCAATTGC | 1 ± 0.033 |
| AGTCAGATTC | 1 ± 0.058 |
| AGTCATCACC | 1.02 ± 0.023 |
| AGTCATCTGC | 1 ± 0.013 |
| AGTCATGGAG | 0.987 ± 0.042 |
| AGTCATGTGC | 0.979 ± 0.038 |
| AGTCCCGCCT | 1.12 ± 0.14 |
| AGTCCGATGT | 1.04 ± 0.038 |
| AGTCCGTCTA | 1.01 ± 0.05 |
| AGTCCTTGGA | 0.99 ± 0.069 |
| AGTCGACGTA | 1.04 ± 0.089 |

| Sequence | switch fluorescence ratio |
| --- | --- |
| AGTCGAGTGG | 1.02 ± 0.047 |
| AGTCGATGTG | 0.966 ± 0.025 |
| AGTCGATTTT | 0.978 ± 0.012 |
| AGTCGCACGA | 0.986 ± 0.016 |
| AGTCGGGCGG | 1 ± 0.026 |
| AGTCGGGGTT | 0.979 ± 0.01 |
| AGTCGGGTAC | 1.04 ± 0.033 |
| AGTCGGTACG | 0.994 ± 0.096 |
| AGTCTAAATT | 1.02 ± 0.011 |
| AGTCTGACCA | 1.018 ± 0.005 |
| AGTCTGGATG | 0.96 ± 0.02 |
| AGTCTGGTCC | 0.987 ± 0.01 |
| AGTCTGTGCT | 0.97353 ± 0.00097 |
| AGTCTTGCTG | 0.989 ± 0.02 |
| AGTCTTTTGT | 0.997 ± 0.026 |
| AGTCTTTTTT | 1 ± 0.0038 |
| AGTGAAGCTG | 0.996 ± 0.027 |
| AGTGAGAATC | 1.036 ± 0.0046 |
| AGTGAGGCGT | 0.984 ± 0.018 |
| AGTGAGTCCG | 0.996 ± 0.01 |
| AGTGAGTCTT | 0.994 ± 0.032 |
| AGTGATAGAT | 0.967 ± 0.023 |
| AGTGCAAAAG | 1.06 ± 0.029 |
| AGTGCAGGTT | 0.97386 ± 7.1e-05 |
| AGTGCGAAGG | 0.97211 ± 0.00025 |

| Sequence | switch fluorescence ratio |
| --- | --- |
| AGTGCGGGGA | 0.993 ± 0.04 |
| AGTGCGGGTC | 1.02 ± 0.012 |
| AGTGCTTCGT | 0.9905 ± 0.0094 |
| AGTGGAGGGG | 0.969 ± 0.029 |
| AGTGGAGGTG | 1.03 ± 0.043 |
| AGTGGCATGT | 0.986 ± 0.012 |
| AGTGGCCGGG | 1.01 ± 0.027 |
| AGTGGCGTGT | 0.988 ± 0.022 |
| AGTGGGAAAG | 0.965 ± 0.027 |
| AGTGGGCGCA | 1.04 ± 0.042 |
| AGTGGGGCAG | 0.986 ± 0.0071 |
| AGTGGGGCC | 1 ± 0.075 |
| AGTGGGGCTT | 0.985 ± 0.043 |
| AGTGGGGTTT | 0.976 ± 0.013 |
| AGTGGGTGCT | 1.02 ± 0.039 |
| AGTGGTCG | 1.04 ± 0.033 |
| AGTGGTGATC | 1.04 ± 0.018 |
| AGTGGTTCG | 1 ± 0.018 |
| AGTGGTTGTG | 0.973 ± 0.0069 |
| AGTGTAATAT | 1 ± 0.023 |
| AGTGTATGGC | 1.01 ± 0.032 |
| AGTGTCACGA | 1.01 ± 0.015 |
| AGTGTCGCTG | 1.008 ± 0.0012 |
| AGTGTCTGC | 0.97 ± 0.087 |
| AGTGTCTGGG | 0.992 ± 0.022 |

| Sequence | switch fluorescence ratio |
| --- | --- |
| AGTGTGAGGT | 0.9858 ± 0.0091 |
| AGTGTGTGGA | 1.04 ± 0.021 |
| AGTGTGTGGG | 1.02 ± 0.03 |
| AGTGTTCGTT | 0.959 ± 0.023 |
| AGTGTTGGGC | 1.05 ± 0.023 |
| AGTGTTTAAT | 0.999 ± 0.032 |
| AGTGTTTTGG | 0.967 ± 0.024 |
| AGTGTTTTTT | 1.01 ± 0.046 |
| AGTTAACATG | 0.978 ± 0.016 |
| AGTTAACTGT | 0.996 ± 0.032 |
| AGTTAAGAGC | 1.01 ± 0.038 |
| AGTTAAGATA | 0.9907 ± 0.0031 |
| AGTTACATTG | 1.02 ± 0.041 |
| AGTTACCA | 1.054 ± 0.0038 |
| AGTTACCTCT | 1.03 ± 0.013 |
| AGTTACGGGT | 1.033 ± 0.0032 |
| AGTTAGGAGG | 0.947 ± 0.053 |
| AGTTAGGGGA | 1.01 ± 0.038 |
| AGTTAGTGT | 0.978 ± 0.051 |
| AGTTAGTTTT | 1 ± 0.017 |
| AGTTATACAA | 1.01 ± 0.037 |
| AGTTATAGCT | 0.985 ± 0.014 |
| AGTTATAGTT | 0.997 ± 0.052 |
| AGTTCACTAT | 0.975 ± 0.011 |
| AGTTCATCTT | 0.964 ± 0.015 |

| Sequence | switch fluorescence ratio |
| --- | --- |
| AGTTCGATGT | 1.01 ± 0.025 |
| AGTTCGCTGT | 0.9889 ± 0.0067 |
| AGTTCGGGGT | 1.02 ± 0.024 |
| AGTTCGTAGT | 1.03 ± 0.049 |
| AGTTCGTTTT | 0.987 ± 0.019 |
| AGTTCTGGGT | 1.04 ± 0.081 |
| AGTTCTGTTT | 0.994 ± 0.047 |
| AGTTCTTATT | 0.965 ± 0.037 |
| AGTTGAAACA | 1.02 ± 0.016 |
| AGTTGAAGGA | 0.986 ± 0.027 |
| AGTTGAATT | 1.03 ± 0.046 |
| AGTTGACGGG | 1.03 ± 0.0082 |
| AGTTGACTTT | 0.986 ± 0.011 |
| AGTTGCATGC | 0.9677 ± 0.0093 |
| AGTTGGGACT | 1.016 ± 0.0068 |
| AGTTGGGATT | 1.032 ± 0.01 |
| AGTTGGGTAT | 1.02 ± 0.012 |
| AGTTGGGTTT | 0.9964 ± 0.0071 |
| AGTTGGTCGG | 0.975 ± 0.031 |
| AGTTGGTGAG | 0.98 ± 0.034 |
| AGTTGGTTTT | 1.02 ± 0.033 |
| AGTTGTAGGG | 1 ± 0.016 |
| AGTTGTATGG | 0.9738 ± 0.0049 |
| AGTTGTGTGC | 0.952 ± 0.044 |
| AGTTGTGTTA | 1.007 ± 0.0057 |

| Sequence | switch fluorescence ratio |
| --- | --- |
| AGTTGTTACA | 1.01 ± 0.032 |
| AGTTGTTGTT | 0.981 ± 0.022 |
| AGTTGTTTCG | 1.016 ± 0.0023 |
| AGTTTAACGC | 0.9911 ± 0.0059 |
| AGTTTAAGAT | 1.005 ± 0.0071 |
| AGTTTACGAT | 1.037 ± 0.0099 |
| AGTTTACTTT | 1.03 ± 0.017 |
| AGTTTATTTT | 0.986 ± 0.034 |
| AGTTTCAGGC | 1.01 ± 0.031 |
| AGTTTCGGAA | 1.021 ± 0.0038 |
| AGTTTGCTGG | 0.996 ± 0.039 |
| AGTTTGGCAG | 0.998 ± 0.035 |
| AGTTTGGCTT | 0.99 ± 0.011 |
| AGTTTGGGTT | 1.01 ± 0.073 |
| AGTTTGTGGG | 0.984 ± 0.0025 |
| AGTTTGTGTG | 0.977 ± 0.014 |
| AGTTTGTTCC | 1.02 ± 0.047 |
| AGTTTTAAGG | 1 ± 0.025 |
| AGTTTTACAA | 1.03 ± 0.012 |
| AGTTTTACAT | 0.9608 ± 0.0018 |
| AGTTTTAGCC | 1 ± 0.027 |
| AGTTTTAGGT | 1.02 ± 0.036 |
| AGTTTTAGTA | 0.974 ± 0.03 |
| AGTTTTATCA | 0.97 ± 0.015 |
| AGTTTTGTCG | 1.01 ± 0.022 |

| Sequence | switch fluorescence ratio |
| --- | --- |
| AGTTTTTTTA | 0.981 ± 0.018 |
| ATAAAAAAGC | 1.02 ± 0.074 |
| ATAAAAGGCG | 1.021 ± 0.0061 |
| ATAAAATCTA | 1.02 ± 0.061 |
| ATAAACTATA | 1.04 ± 0.06 |
| ATAAAGGGCC | 0.99 ± 0.012 |
| ATAAAGTTCC | 1.13 ± 0.038 |
| ATAAATCGAT | 1.023 ± 0.0018 |
| ATAAATGATA | 1 ± 0.049 |
| ATAAATGCCG | 0.961 ± 0.12 |
| ATAACACATG | 1.01 ± 0.032 |
| ATAACCATCA | 0.996 ± 0.057 |
| ATAAGAAGCG | 1.02 ± 0.04 |
| ATAAGCGATT | 1.03 ± 0.024 |
| ATAAGCGGGG | 1.01 ± 0.04 |
| ATAAGCTGGT | 0.953 ± 0.021 |
| ATAAGGAGTA | 1 ± 0.016 |
| ATAAGGCCTA | 0.991 ± 0.038 |
| ATAAGGCGAG | 0.998 ± 0.025 |
| ATAAGGGTAG | 1.028 ± 0.0054 |
| ATAAGGTCGC | 0.927 ± 0.021 |
| ATAAGGTTCC | 1.091 ± 0.005 |
| ATAAGTAACG | 1 ± 0.015 |
| ATAAGTACTC | 1.28 ± 0.1 |
| ATAAGTCCGG | 1.03 ± 0.042 |
